Source: publication PMC5327383, “Pneumococcal galactose catabolism is controlled by multiple regulators acting on pyruvate formate lyase” (Scientific Reports, 2017)
Where “and” joins values, the source holds several entries; their conditions need not be identical. Identical values can stand only once.

Assays:
Assay in all cases: EMSA
[1] = biological target: T1, GlnR (Streptococcus pneumoniae D39) (UniProt A0A0H2ZRB1); settings: 5X FY buffer: 20 mM Tris-HCl pH 7.5, 30 mM KCl, 1 mM DTT, 1 mM EDTA, 10% glycerol; room temperature 20 min, 20 ul, ~30 ng DNA, 0.1-0.5 uM protein; 8%
T1 sequence: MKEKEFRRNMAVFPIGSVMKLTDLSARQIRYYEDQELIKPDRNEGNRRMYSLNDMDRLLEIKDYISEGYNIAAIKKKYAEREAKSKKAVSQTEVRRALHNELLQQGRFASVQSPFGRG

[2] = biological target: T2, GntR (Streptococcus pneumoniae D39) (UniProt A0A0H2ZQS8); settings: 5X FY buffer: 20 mM Tris-HCl pH 7.5, 30 mM KCl, 1 mM DTT, 1 mM EDTA, 10% glycerol; room temperature 20 min, 20 ul, ~30 ng DNA, 0.1-0.5 uM protein; 8%
T2 sequence: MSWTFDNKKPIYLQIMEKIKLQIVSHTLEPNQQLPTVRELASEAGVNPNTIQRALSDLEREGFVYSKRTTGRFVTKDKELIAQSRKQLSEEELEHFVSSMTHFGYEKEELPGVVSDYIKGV

[3] = biological target: CcpA (Streptococcus pneumoniae D39) (UniProt A0A0H2ZQ65); settings: 5X FY buffer: 20 mM Tris-HCl pH 7.5, 30 mM KCl, 1 mM DTT, 1 mM EDTA, 10% glycerol; room temperature 20 min, 20 ul, ~30 ng DNA, 0.1-0.5 uM protein; 8%
[4] = system: CcpA (Streptococcus pneumoniae D39); settings: 5X FY buffer: 20 mM Tris-HCl pH 7.5, 30 mM KCl, 1 mM DTT, 1 mM EDTA, 10% glycerol, room temperature 20 min, 20 ul, ~30 ng DNA, 0.1-0.5 uM protein, 8%
[5] = system: GlnR (Streptococcus pneumoniae D39); settings: 5X FY buffer: 20 mM Tris-HCl pH 7.5, 30 mM KCl, 1 mM DTT, 1 mM EDTA, 10% glycerol, room temperature 20 min, 20 ul, ~30 ng DNA, 0.1-0.5 uM protein, 8%

| Substance | binding [1] | binding [2] | binding [3] | further results |
| --- | --- | --- | --- | --- |
| GTGAAAATTTCGTTTTCATATTTCTACTTATTCCATTCTATCACTAATTGTAAACACTTTCAAGTGTTTTTTGAAGATTGATTGAAAAAATTTCA (double strand) [PccpA] | binds | no binding | binds | – |
| ATGACAGAAGAAATCAAAAATCTGCAGGCACAGGATTATGATGCCAGTCAAATTCAAGTTTTAGAGGGCTTAGAGGCTGTTCGTATGCGTCCAGG (double strand) [gyrB] | no binding | – | no binding | – |
| CAGTTTGAAATAAAATATAGACTGTTTTAGAAAAGAAAGTGTAAAAATAGGGATTTTGCACTTGTTGAAATCGGTTACTTTATGGTATACTTGTC (double strand) [PpflB] | – | binds | – | Kd [1]: 310 nM; Kd [3]: 1270 nM and 350 nM |
| PpflB | – | – | – | Kd ([4]; 10 mM sodium formate): 350 nM; Kd ([4]; no formate): 1270 nM; Kd ([5]; 10 mM sodium formate): 790 nM; Kd ([5]; no formate): 310 nM |
| AAGTGCAAAATCCCTATTTTTACACTTTCTTTTCTAAAACAGTCTATATTTTATTTCAAACTGTATTATATTTTTGAAAAAAATAAAGTCCTTTT (double strand) [PpflB(cre1-)] | no binding | – | no binding | – |
| TAATCTGATGATAGATTGAAAATGAAATTGAAAAACAGATTGCTTTCTAAAAAATAGGCAAAAATCTTGTTTTTCCTTCAAGTCGTGATATAATAA (double strand) [PpflA(cre1-)] | binds more weakly | – | binds more weakly | – |
| GTTACCTTCCTTGAAAACGTTTTATAGTTTTATTATATCACGACTTGAAGGAAAAACAAGATTTTTGCCTATTTTTTAGAAAGCAATCTGTTTTTC (double strand) [PpflA] | binds | no binding | binds | – |
